What was measured:
[1] = In-vivo distribution in mouse tissue (fluorescence imaging of tissue flakes); settings: 94.6 mg kg^−1 intraperitoneal, after 20 min
Description: After 20 min, the mice administered with the above solution were perfused with PBS (pH 7.4) containing paraformaldehyde (4%), and the main organs (brain, heart, lungs, kidneys, spleen and liver) thereof were cultured overnight in PBS (phosphate buffered saline) containing sucrose (0.5 M). A cryoprotectant was added thereto and the above tissue was cut into 15 μm flakes using a cryostat, transferred to a coated slide glass and then dried. Each flake was washed with PBS, treated with Triton X-100 (0.3%) at room temperature for 15 min, and analyzed using an Axioplan2 fluorescence imaging microscope. As a control, deionized water (500 μl) was injected into other mice, and the same procedures as above were performed, after which the compound represented by green fluorescence of FITC in each tissue was compared with autofluorescence of the control.

HeLa cells = experiment: Evaluation of cellular uptake of ibuprofen conjugate (confocal fluorescence); format: cell-based; settings: 10 μM, 37° C., 30 min, confocal laser scanning microscope
Description: HeLa cells were cultured at 37° C. in wet air containing 5% CO2 in a DMEM (high-glucose Dulbecco's Modified Eagle's Medium) containing penicillin-added 10% (v/v) FBS (fetal bovine serum). Subculturing was performed every 2 to 3 days until the cells became subconfluent.
HeLa cells (1×10^5 cells per well) were seeded on a 35 mm coverglass dish (SPL Ltd., Korea) and cultured for 24 hr, after which the medium was removed, and the HeLa cells were washed with cold PBS (×1) (Dulbecco's phosphate buffered saline, pH 7.4). The resulting cells were cultured at 37° C. for 30 min in 3 ml of DMEM containing 10 μM Compound 8 or 10 μM Compound 9, after which the medium was removed, and the HeLa cells were washed five times with cold PBS. The intracellular internalization and intracellular localization of the compound were investigated through fluorescence, achieved using fluorescein, using a confocal laser scanning microscope (Olympus Fluoview FV1000, N.A. 1.30, 40×, planApo, oil immersion lens). The fluorescence of FITC was analyzed at an excitation wavelength of 488 nm and an emission wavelength of 500 to 530 nm, and all experiments were performed three times.

[2] = Plasma stability test (HPLC); format: in vitro ADME; settings: human plasma, 37° C.
Description: In order to evaluate plasma stability, a homogeneous solution of Compound 8 ([…]) was prepared. An aliquot thereof was injected into the plasma (human, Sigma, USA) so as to reach a final concentration of 50 μg/ml, followed by vortexing and culturing at 37° C. for 0, 3, 6, 9, 12, 15, 18, 21 and 24 hr. The plasma solution (200 μl) was then mixed with 1 ml of MeOH to prevent hydrolysis of Compound 8. This solution was added with biotin (internal standard) in distilled water (100 μl, 5 μg/ml) and centrifuged at 2000 rpm for 10 min. The supernatant was collected and dried in air. The residue was dissolved in distilled water (2 ml) and centrifuged at 2000 rpm for 10 min. The supernatant thus obtained was analyzed using HPLC through the following method.
10 μl of the clean supernatant obtained through the above method was introduced into the HPLC system. The UV detector was set at 260 nm and the flow rate was 1.0 ml/min for a running time of 10 to 15 min. The isocratic mobile phase system consisted of MeOH/H2O (30/70), and the column oven was maintained at 37° C. using a C18-column (Agilent, ZORBAX, 4.6×250 mm, 5 μm).
HPLC chromatograms were obtained at each interval, and the remaining amount of Compound 8 was calculated and expressed as a percentage by subtracting the concentration of ibuprofen, released based on the area under the curve, from the sum of the initial concentration of Compound 8 and the internal standard.

Compound: fluoresceinyl (S)-2-(2-(4-isobutylphenyl)propanamido)-acetate [Compound 9]
- distribution in brain (green fluorescence of FITC) [1]: not distributed in the brain
- cellular uptake / intracellular FITC fluorescence (HeLa cells): did not show fluorescence in the cells

Compound: CC(C)Cc1ccc(C(C)C(=O)NCC(=O)OC[C@H](OC(=O)CCCCCN(CCCNC(=N)N)CCCNC(=N)N)[C@@H](OC(=O)CCCCCN(CCCNC(=N)N)CCCNC(=N)N)[C@H](OC(=O)CCCCCN(CCCNC(=N)N)CCCNC(=N)N)[C@@H](COC(=O)CCCCCNC(=S)Nc2ccc3c(c2)C(=O)OC32c3ccc(O)cc3Oc3cc(O)ccc32)OC(=O)CCCCCN(CCCNC(=N)N)CCCNC(=N)N)cc1.Cl.Cl.Cl.Cl.Cl.Cl.Cl.Cl (stereo partly drawn) [Compound 8, 1-O-(2-aminoacetoxy-ibuprofen)-2,3,4,5-tetra-O—[N-{bis-(3-guanidinopropyl)}-6-aminohexanoyl]-6-O-[6-(fluoresceinyl-5-thioureido)-hexanoyl]-D-sorbitol 8HCl]
- hydrolysis relative to the initial time (0 hr) ([2]; 50 μg/ml, after culture for 3 hr): about 5%
- decrease of the amount remaining ([2]; 50 μg/ml, next culture time of 21 hr (3 to 24 hr)): ~8%
- half-life and stability in the plasma (in words) ([2]; up to 24 hr): long half-life and considerable stability
- cellular uptake / intracellular FITC fluorescence (HeLa cells): strong green fluorescence that is predominant in the cytoplasm
